Source: paper doi:10.1101/2022.04.02.486817 (bioRxiv, 2022)

T1: Cμ2 (UniProt P84092 158-435)
T1 sequence (looked up): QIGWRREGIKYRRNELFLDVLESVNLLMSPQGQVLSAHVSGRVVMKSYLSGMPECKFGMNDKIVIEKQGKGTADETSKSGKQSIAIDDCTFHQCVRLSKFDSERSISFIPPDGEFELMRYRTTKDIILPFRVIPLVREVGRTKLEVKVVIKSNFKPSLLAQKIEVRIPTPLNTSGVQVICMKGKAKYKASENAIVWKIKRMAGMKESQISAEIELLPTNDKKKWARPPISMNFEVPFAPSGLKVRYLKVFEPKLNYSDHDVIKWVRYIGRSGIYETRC

B1: FCHO1 linker (residues 316-444) (domain or fragment)
chain: TCPEVDEEGFTVRPDVTQNSTAEPSRFSSSDSDFDDEEPRKFYVHIKPAPARAPACSPEAAAAQLRATAGSLILPPGPGGTMKRHSSRDAAGKPQRPRSAPRTSSCAERLQSEEQVSKNLFGPPLESAF
B2: FCHO2 linker (residues 314-444) (domain or fragment)
chain: NIPDVDEEGYSIKPETNQNDTKENHFYSSSDSDSEDEEPKKYRIEIKPMHPNNSHHTMASLDELKVSIGNITLSPAISRHSPVQMNRNLSNEELTKSKPSAPPNEKGTSDLLAWDPLFGPSLDSSSSSSLT
B3: FCHO2N1+N2 (domain or fragment, human, UniProt Q0JRZ9 314-357, looked up)
chain: NIPDVDEEGYSIKPETNQNDTKENHFYSSSDSDSEDEEPKKYRI
B4: FCHO1 C peptide (residues 426-448 SEEQVSKNLFGPPLESAFDHEH) (peptide)
peptide: SEEQVSKNLFGPPLESAFDHEH

Legend:
recombinant AP2 core = recombinant AP2 core (UniProt P18484 1-621; P63010 1-591; P84092 1-435; P62743 1-142); assay: BLI
Cμ2 = target: T1, Cμ2; assay: ITC
AP2 α-appendage = AP2 α-appendage (UniProt P17427 702-938); assay: ITC
Sequence of AP2 α-appendage (P17427 702-938): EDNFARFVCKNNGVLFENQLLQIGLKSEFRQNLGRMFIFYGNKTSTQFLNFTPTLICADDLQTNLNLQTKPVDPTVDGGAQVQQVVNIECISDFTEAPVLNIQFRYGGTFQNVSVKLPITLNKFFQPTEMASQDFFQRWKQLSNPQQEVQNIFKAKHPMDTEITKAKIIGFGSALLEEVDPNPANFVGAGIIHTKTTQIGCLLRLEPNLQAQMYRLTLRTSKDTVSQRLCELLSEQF

Binder | Kd (recombinant AP2 core) [µM] | other results
B1 | 8.5 ± 2.2 | 
B2 | 9.8 ± 1.5 | 
B3 |  | Kd (Cμ2): ~25 µM
B4 |  | Kd (AP2 α-appendage): ~50 µM
